Data as given in the supplement of paper PMC10201428.
± gives the standard deviation of the averaged measurements.

Columns and labels:
[1] = tested on: VchCAST RNA-guided transposition machinery (E. coli BL21(DE3) host, lacZ target); test: relative integration efficiency (T-LR orientation) vs wild-type transposon end (log2 (normalized fold change)); transposon end mutated: right end (5 bp flank + 75 bp right end); higher = more efficient transposition
Summary of the method: (§1)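 A T7-driven effector plasmid encoding a CRISPR array, tniQ-cas8-cas7-cas6 and tnsA-tnsB-tnsC was co-transformed into E. coli BL21(DE3) together with a pUC57 mini-transposon donor holding barcoded pools of 1549 left-end or 1849 right-end variants. Transformants were plated with 0.1 mM IPTG at 37°C for 18 h. Illumina sequencing of PCR-amplified input plasmids and genomic integration junctions gave barcode abundances, and relative integration efficiency is their output/input fold change, normalised to reference barcodes and log-transformed.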

[2] = tested on: VchCAST RNA-guided transposition machinery (E. coli BL21(DE3) host, lacZ target); test: relative integration efficiency (T-RL orientation) vs wild-type transposon end (log2 (normalized fold change)); transposon end mutated: right end (5 bp flank + 75 bp right end); higher = more efficient transposition
Summary of the method: as §1

Sequence: ACATTTGTTGATACACCCATAAATTGATATTGCCAACCATAAAATGATAATTATCACAACCATAAGTTGATATTTTCTCTGATCATAGTCAGACCAACATTGCTACGACCCGTATTCGCACCGACAC
- relative integration efficiency (log2) [1]: -0.175 ± 0.71
- relative integration efficiency (log2) [2]: -0.46 ± 0.23

Sequence: ACATTTGTTGATACACCCATAAATTGATATTGCCAACCATAAAATGATAATTATCACAACCATATATTGATATCTCCTCTGATCATAGTCAGACCAACATTGCTACGACCCGTATTCGCACCGACAC
- relative integration efficiency (log2) [1]: -0.207 ± 0.002
- relative integration efficiency (log2) [2]: -0.961 ± 0.18

Sequence: ACATTTGTTGATACACCCATAAATTGATATTGCCAACCATAAAATGATAATTATCACACCCATAAATTGATAATTACTCTGATCATAGTCAGACCAACATTGCTACGACCCGTATTCGCACCGACAC
- relative integration efficiency (log2) [1]: -0.568 ± 0.82
- relative integration efficiency (log2) [2]: -0.642 ± 0.2

Sequence: ACATTTGTTGATACACCCATAAATTGATATTGCCAACCATAAAATGATAATTATCACACCCATAAATTGATATTGCCTCTGATCATAGTCAGACCAACATTGCTACGACCCGTATTCGCACCGACAC
- relative integration efficiency (log2) [1]: -0.203 ± 0.43
- relative integration efficiency (log2) [2]: -0.863 ± 0.071

Sequence: ACATTTGTTGATACACCCATAAATTGATATTGCCAACCATAAAATGATAATTATCAGTGGGTATTTAACTATAACGCTCTGATCATAGTCAGACCAACATTGCTACGACCCGTATTCGCACCGACAC
- relative integration efficiency (log2) [1]: 2.28 ± 0.096
- relative integration efficiency (log2) [2]: -1.21 ± 0.35

Sequence: ACATTTGTTGATACACCCATAAATTGATATTGCCAACCATAAAGTGATATTTATCACAACCATAAAATGATAATTACTCTGATCATAGTCAGACCAACATTGCTACGACCCGTATTCGCACCGACAC
- relative integration efficiency (log2) [1]: -0.362 ± 0.13
- relative integration efficiency (log2) [2]: -0.499 ± 0.21

Sequence: ACATTTGTTGATACACCCATAAATTGATATTGCCAACCATAAAGTGATATTTATCACAACCATAAAGTGATATTTACTCTGATCATAGTCAGACCAACATTGCTACGACCCGTATTCGCACCGACAC
- relative integration efficiency (log2) [1]: -0.426 ± 0.4
- relative integration efficiency (log2) [2]: -0.684 ± 0.13

Sequence: ACATTTGTTGATACACCCATAAATTGATATTGCCAACCATAAAGTGATATTTATCACAACCATAAGTTGATATTTTCTCTGATCATAGTCAGACCAACATTGCTACGACCCGTATTCGCACCGACAC
- relative integration efficiency (log2) [1]: -0.0145 ± 0.0084
- relative integration efficiency (log2) [2]: -0.617 ± 0.14

Sequence: ACATTTGTTGATACACCCATAAATTGATATTGCCAACCATAAAGTGATATTTATCACAACCATATATTGATATCTCCTCTGATCATAGTCAGACCAACATTGCTACGACCCGTATTCGCACCGACAC
- relative integration efficiency (log2) [1]: 0.117 ± 0.34
- relative integration efficiency (log2) [2]: -0.78 ± 0.17

Sequence: ACATTTGTTGATACACCCATAAATTGATATTGCCAACCATAAAGTGATATTTATCACACCCATAAATTGATAATTACTCTGATCATAGTCAGACCAACATTGCTACGACCCGTATTCGCACCGACAC
- relative integration efficiency (log2) [1]: -0.215 ± 0.15
- relative integration efficiency (log2) [2]: -0.649 ± 0.14

Sequence: ACATTTGTTGATACACCCATAAATTGATATTGCCAACCATAAAGTGATATTTATCACACCCATAAATTGATATTGCCTCTGATCATAGTCAGACCAACATTGCTACGACCCGTATTCGCACCGACAC
- relative integration efficiency (log2) [1]: -0.415 ± 0.17
- relative integration efficiency (log2) [2]: -0.74 ± 0.11

Sequence: ACATTTGTTGATACACCCATAAATTGATATTGCCAACCATAAAGTGATATTTATCAGTGGGTATTTAACTATAACGCTCTGATCATAGTCAGACCAACATTGCTACGACCCGTATTCGCACCGACAC
- relative integration efficiency (log2) [1]: 2.341 ± 0.0029
- relative integration efficiency (log2) [2]: -1.12 ± 0.16

Sequence: ACATTTGTTGATACACCCATAAATTGATATTGCCAACCATAAGTTGATATTTTTCACAACCATAAAATGATAATTACTCTGATCATAGTCAGACCAACATTGCTACGACCCGTATTCGCACCGACAC
- relative integration efficiency (log2) [1]: -0.0638 ± 0.3
- relative integration efficiency (log2) [2]: -0.413 ± 0.23

Sequence: ACATTTGTTGATACACCCATAAATTGATATTGCCAACCATAAGTTGATATTTTTCACAACCATAAAGTGATATTTACTCTGATCATAGTCAGACCAACATTGCTACGACCCGTATTCGCACCGACAC
- relative integration efficiency (log2) [1]: -0.457 ± 0.31
- relative integration efficiency (log2) [2]: -0.583 ± 0.25

Sequence: ACATTTGTTGATACACCCATAAATTGATATTGCCAACCATAAGTTGATATTTTTCACAACCATAAGTTGATATTTTCTCTGATCATAGTCAGACCAACATTGCTACGACCCGTATTCGCACCGACAC
- relative integration efficiency (log2) [1]: -0.197 ± 0.3
- relative integration efficiency (log2) [2]: -0.695 ± 0.095

Sequence: ACATTTGTTGATACACCCATAAATTGATATTGCCAACCATAAGTTGATATTTTTCACAACCATATATTGATATCTCCTCTGATCATAGTCAGACCAACATTGCTACGACCCGTATTCGCACCGACAC
- relative integration efficiency (log2) [1]: 0.0942 ± 0.34
- relative integration efficiency (log2) [2]: -0.899 ± 0.17

Sequence: ACATTTGTTGATACACCCATAAATTGATATTGCCAACCATAAGTTGATATTTTTCACACCCATAAATTGATAATTACTCTGATCATAGTCAGACCAACATTGCTACGACCCGTATTCGCACCGACAC
- relative integration efficiency (log2) [1]: 0.0375 ± 0.27
- relative integration efficiency (log2) [2]: -0.7 ± 0.21

Sequence: ACATTTGTTGATACACCCATAAATTGATATTGCCAACCATAAGTTGATATTTTTCACACCCATAAATTGATATTGCCTCTGATCATAGTCAGACCAACATTGCTACGACCCGTATTCGCACCGACAC
- relative integration efficiency (log2) [1]: -0.37 ± 0.1
- relative integration efficiency (log2) [2]: -0.773 ± 0.11

Sequence: ACATTTGTTGATACACCCATAAATTGATATTGCCAACCATAAGTTGATATTTTTCAGTGGGTATTTAACTATAACGCTCTGATCATAGTCAGACCAACATTGCTACGACCCGTATTCGCACCGACAC
- relative integration efficiency (log2) [1]: 2.3 ± 0.092
- relative integration efficiency (log2) [2]: -1.31 ± 0.4

Sequence: ACATTTGTTGATACACCCATAAATTGATATTGCCAACCATATATTGATATCTCTCACAACCATAAAATGATAATTACTCTGATCATAGTCAGACCAACATTGCTACGACCCGTATTCGCACCGACAC
- relative integration efficiency (log2) [1]: -0.955 ± 0.52
- relative integration efficiency (log2) [2]: -1.22 ± 0.23

Sequence: ACATTTGTTGATACACCCATAAATTGATATTGCCAACCATATATTGATATCTCTCACAACCATAAAGTGATATTTACTCTGATCATAGTCAGACCAACATTGCTACGACCCGTATTCGCACCGACAC
- relative integration efficiency (log2) [1]: -0.365 ± 0.021
- relative integration efficiency (log2) [2]: -1.21 ± 0.24

Sequence: ACATTTGTTGATACACCCATAAATTGATATTGCCAACCATATATTGATATCTCTCACAACCATAAGTTGATATTTTCTCTGATCATAGTCAGACCAACATTGCTACGACCCGTATTCGCACCGACAC
- relative integration efficiency (log2) [1]: 1.12 ± 0.16
- relative integration efficiency (log2) [2]: 0.0747 ± 0.27

Sequence: ACATTTGTTGATACACCCATAAATTGATATTGCCAACCATATATTGATATCTCTCACAACCATATATTGATATCTCCTCTGATCATAGTCAGACCAACATTGCTACGACCCGTATTCGCACCGACAC
- relative integration efficiency (log2) [1]: -0.214 ± 0.48
- relative integration efficiency (log2) [2]: -1.29 ± 0.34

Sequence: ACATTTGTTGATACACCCATAAATTGATATTGCCAACCATATATTGATATCTCTCACACCCATAAATTGATAATTACTCTGATCATAGTCAGACCAACATTGCTACGACCCGTATTCGCACCGACAC
- relative integration efficiency (log2) [1]: 0.0732 ± 0.11
- relative integration efficiency (log2) [2]: -1.1 ± 0.15

Sequence: ACATTTGTTGATACACCCATAAATTGATATTGCCAACCATATATTGATATCTCTCACACCCATAAATTGATATTGCCTCTGATCATAGTCAGACCAACATTGCTACGACCCGTATTCGCACCGACAC
- relative integration efficiency (log2) [1]: -0.587 ± 0.35
- relative integration efficiency (log2) [2]: -1.11 ± 0.06

Sequence: ACATTTGTTGATACACCCATAAATTGATATTGCCAACCATATATTGATATCTCTCAGTGGGTATTTAACTATAACGCTCTGATCATAGTCAGACCAACATTGCTACGACCCGTATTCGCACCGACAC
- relative integration efficiency (log2) [1]: 2.26 ± 0.088
- relative integration efficiency (log2) [2]: -1.7 ± 0.32

Sequence: ACATTTGTTGATACACCCATAAATTGATATTGCCACCCATAAATTGATAATTATCACAACCATAAAATGATAATTACTCTGATCATAGTCAGACCAACATTGCTACGACCCGTATTCGCACCGACAC
- relative integration efficiency (log2) [1]: -0.453 ± 0.047
- relative integration efficiency (log2) [2]: -0.382 ± 0.087

Sequence: ACATTTGTTGATACACCCATAAATTGATATTGCCACCCATAAATTGATAATTATCACAACCATAAAGTGATATTTACTCTGATCATAGTCAGACCAACATTGCTACGACCCGTATTCGCACCGACAC
- relative integration efficiency (log2) [1]: -0.376 ± 0.6
- relative integration efficiency (log2) [2]: -0.75 ± 0.089

Sequence: ACATTTGTTGATACACCCATAAATTGATATTGCCACCCATAAATTGATAATTATCACAACCATAAGTTGATATTTTCTCTGATCATAGTCAGACCAACATTGCTACGACCCGTATTCGCACCGACAC
- relative integration efficiency (log2) [1]: -0.238 ± 0.32
- relative integration efficiency (log2) [2]: -0.676 ± 0.16

Sequence: ACATTTGTTGATACACCCATAAATTGATATTGCCACCCATAAATTGATAATTATCACAACCATATATTGATATCTCCTCTGATCATAGTCAGACCAACATTGCTACGACCCGTATTCGCACCGACAC
- relative integration efficiency (log2) [1]: -0.478 ± 0.18
- relative integration efficiency (log2) [2]: -1.14 ± 0.14

Sequence: ACATTTGTTGATACACCCATAAATTGATATTGCCACCCATAAATTGATAATTATCACACCCATAAATTGATAATTACTCTGATCATAGTCAGACCAACATTGCTACGACCCGTATTCGCACCGACAC
- relative integration efficiency (log2) [1]: -0.0383 ± 0.28
- relative integration efficiency (log2) [2]: -0.597 ± 0.26

Sequence: ACATTTGTTGATACACCCATAAATTGATATTGCCACCCATAAATTGATAATTATCACACCCATAAATTGATATTGCCTCTGATCATAGTCAGACCAACATTGCTACGACCCGTATTCGCACCGACAC
- relative integration efficiency (log2) [1]: -0.216 ± 0.095
- relative integration efficiency (log2) [2]: -0.842 ± 0.076
